Experimental data from patent publication US20200377573.

B1: Human plasmin (protein)
chain: KVYLSECKTGNGKNYRGTMSKTKNGITCQKWSSTSPHRPRFSPATHPSEGLEENYCRNPDNDPQGPWCYTTDPEKRYDYCDILECEEECMHCSGENYDGKISKTMSGLECQAWDSQSPHAHGYIPSKFPNKNLKKNYCRNPDRELRPWCFTTDPNKRWELCDIPRCTTPPPSSGPTYQCLKGTGENYRGNVAVTVSGHTCQHWSAQTPHTHNRTPENFPCKNLDENYCRNPDGKRAPWCHTTNSQVRWEYCKIPSCDSSPVSTEQLAPTAPPELTPVVQDCYHGDGQSYRGTSSTTTTGKKCQSWSSMTPHRHQKTPENYPNAGLTMNYCRNPDADKGPWCFTTDPSVRWEYCNLKKCSGTEASVVAPPPVVLLPDVETPSEEDCMFGNGKGYRGKRATTVTGTPCQDWAAQEPHRHSIFTPETNPRAGLEKNYCRNPDGDVGGPWCYTTNPRKLYDYCDVPQCAAPSFDCGKPQVEPKKCPGRVVGGCVAHPHSWPWQVSLRTRFGMHFCGGTLISPEWVLTAAHCLEKSPRPSSYKVILGAHQEVNLEPHVQEIEVSRLFLEPTRKDIALLKLSSPAVITDKVIPACLPSPNYVVADRTECFITGWGETQGTFGAGLLKEAQLPVIENKVCNRYEFLNGRVQSTELCAGHLAGGTDSCQGDSGGPLVCFEKDKYILQGVTSWGLGCARPNKPGVYVRVSRFVTWIEGVMRNN
B2: Human tPA (protein)
chain: SYQVICRDEKTQMIYQQHQSWLRPVLRSNRVEYCWCNSGRAQCHSVPVKSCSEPRCFNGGTCQQALYFSDFVCQCPEGFAGKCCEIDTRATCYEDQGISYRGTWSTAESGAECTNWNSSALAQKPYSGRRPDAIRLGLGNHNYCRNPDRDSKPWCYVFKAGKYSSEFCSTPACSEGNSDCYFGNGSAYRGTHSLTESGASCLPWNSMILIGKVYTAQNPSAQALGLGKHNYCRNPDGDAKPWCHVLKNRRLTWEYCDVPSCSTCGLRQYSQPQFRIKGGLFADIASHPWQAAIFAKHRRSPGERFLCGGILISSCWILSAAHCFQERFPPHHLTVILGRTYRVVPGEEEQKFEVEKYIVHKEFDDDTYDNDIALLQLKSDSSRCAQESSVVRTVCLPPADLQLPDWTECELSGYGKHEALSPFYSERLKEAHVRLYPSSRCTSQHLLNRTVTDNMLCAGDTRSGGPQANLHDACQGDSGGPLVCLNDGRMTLVGIISWGLGCGQKDVPGVYTKVTNYLDWIRDNMRP
B3: Human matriptase (protein)
chain: VVGGTDADEGEWPWQVSLHALGQGHICGASLISPNWLVSAAHCYIDDRGFRYSDPTQWTAFLGLHDQSQRSAPGVQERRLKRIISHPFFNDFTFDYDIALLELEKPAEYSSMVRPICLPDASHVFPAGKAIWVTGWGHTQYGGTGALILQKGEIRVINQTTCENLLPQQITPRMMCVGFLSGGVDSCQGDSGGPLSSVEADGRIFQAGVVSWGDGCAQRNKPGVYTRLPLFRDWIKENTGV
B4: Human HTRA2 (protein)
chain: AVPSPPPASPRSQYNFIADVVEKTAPAVVYIEILDRHPFLGREVPISNGSGFVVAADGLIVTNAHVVADRRRVRVRLLSGDTYEAVVTAVDPVADIATLRIQTKEPLPTLPLGRSADVRQGEFVVAMGSPFALQNTITSGIVSSAQRPARDLGLPQTNVEYIQTDAAIDFGNSGGPLVNLDGEVIGVNTMKVTAGISFAIPSDRLREFLHRGEKKNSSSGISGSQRRYIGVMMLTLSPSILAELQLREPSFPDVQHGVLIHKVILGSPAHRAGLRPGDVILAIGEQMVQNAEDVYEAVRTQSQLAVQIRRGRETLTLYVTPEVTE
B5: Human chymase (protein)
chain: IIGGTECKPHSRPYMAYLEIVTSNGPSKFCGGFLIRRNFVLTAAHCAGRSITVTLGAHNITEEEDTWQKLEVIKQFRHPKYNTSTLHHDIMLLKLKEKASLTLAVGTLPFPSQFNFVPPGRMCRVAGWGRTGVLKPGSDTLQEVKLRLMDPQACSHFRDFDHNLQLCVGNPRKTKSAFKGDSGGPLLCAGVAQGIVSYGRSDAKPPAVFTRISHYRPWINQILQAN

Biological target: HTRA1-inhibiting peptides (Example 3-2 and 3-3, members not named)

Row | Protein | protease activity (decomposition of a peptide substrate)
1 | B1 | did not suppress the protease activity of any of the proteases at a final inhibitor concentration of 1 micro M
2 | B2 | did not suppress the protease activity of any of the proteases at a final inhibitor concentration of 1 micro M
3 | B3 | did not suppress the protease activity of any of the proteases at a final inhibitor concentration of 1 micro M
4 | B4 | did not suppress the protease activity of any of the proteases at a final inhibitor concentration of 1 micro M
5 | B5 | did not suppress the protease activity of any of the proteases at a final inhibitor concentration of 1 micro M
